Results on three molecules are retold here after US20120027769A1 (BHARAT SERUMS AND VACCINES, published 2012).

The target in assay [1] is T1, Rhesus D antigen on RhD-positive human red blood cells (human, UniProt Q02161 2-417).
T1 sequence (looked up): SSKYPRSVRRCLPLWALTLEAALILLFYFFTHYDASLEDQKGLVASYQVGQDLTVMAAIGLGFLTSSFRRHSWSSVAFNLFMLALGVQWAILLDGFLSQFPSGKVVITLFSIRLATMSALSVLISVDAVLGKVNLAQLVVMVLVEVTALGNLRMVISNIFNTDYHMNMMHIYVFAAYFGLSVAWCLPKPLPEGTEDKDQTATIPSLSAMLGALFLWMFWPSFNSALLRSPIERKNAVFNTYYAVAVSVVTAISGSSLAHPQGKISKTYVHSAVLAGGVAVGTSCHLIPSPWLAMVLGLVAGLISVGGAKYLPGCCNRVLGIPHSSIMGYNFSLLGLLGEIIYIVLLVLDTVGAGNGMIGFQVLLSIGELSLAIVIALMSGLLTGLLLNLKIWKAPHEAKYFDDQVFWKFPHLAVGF
Description: cell-based or functional assay.

The target in assay [2] is T1, Rhesus D antigen on RhD-positive human …. Description: hemagglutination of bromelain-treated RhD-positive erythrocytes, Technicon Autoanalyzer, against the NIBSC polyclonal standard. Here is the method:
Briefly, bromelain-treated RhD positive red cells are incubated with various concentrations of anti-RhD antibodies. The cells are allowed to agglutinate over a period of time. The agglutinated cells are removed in the autoanalyzer and the rest of the erythrocytes are lysed using detergent. The optical density of the released hemoglobin is measured spectrophotometrically. The anti-D concentrations of the samples are calculated using a standard graph obtained from various concentrations of the Anti-D standard.

“And” between values parts separate entries of the source, which are not always exact repeats. Equal entries are not always repeated.

B1: anti-RhD monoclonal antibody RhD3 (antibody, human IgG3, kappa, V domains shown)
VH: QVTLKESGPVLVKPTETLTLTCTVSGFSLNNARMGVSWIRQPPGKALEWLAHIFSNDEKSYSTSLKSRLTISKDTSKSQVFLTMTNMDPVDTATYYCARTPITMVRGAIRLYYYYYMDVWGKGTTVTVSS
VL: DIQVTQSPSSLSASVGDRVTINCRASQSIGTYLNWYQQKPGKAPNLLIYAASSLQSGVPSRFSGSGSGTDFTLTISSLQPEDFATYYCQQTYSTPTWTFGRGTKVEIKR
For the molecule B1, in assay [1], the “ADCC EC50 (ng of Active Ab/ml), Average” value was 0.3 ng of Active Ab/ml and 0.2 ng of Active Ab/ml; the “ADCC EC50 (ng of Active Ab/ml), Experiment 1” value (shortened to “ADCC EC50 … Experiment 1”) is 0.2 ng of Active Ab/ml and 0.1 ng of Active Ab/ml; the “ADCC EC50 (ng of Active Ab/ml), Experiment 2” value (from here on “ADCC EC50 … Experiment 2”) was 0.3 ng of Active Ab/ml and 0.2 ng of Active Ab/ml.

B2: anti-RhD monoclonal antibody RhD1 (antibody, human IgG1, lambda)
heavy: not shown
light: QSALTQPASVSGSPGQSITISCSGSSSDVGGYKYVSWYQQHPGKAPQLMIYDVNNRPSGVSNRFSGSKSGNTASLTISGLQAEDEADYYCSSYTSSSTRVFGGGTKLTVLGQPKAAPSVTLFPPSSEELQANKATLVCLISDFYPGAVTVAWKADSSPVKAGVETTTPSKQSNNKYAASSYLSLTPEQWKSHKSYSCQVTHEGSTVEKTVAPTECS
For B2, in assay [1], the “ADCC EC50 (ng of Active Ab/ml), Average” value is 1.1 ng of Active Ab/ml and 0.7 ng of Active Ab/ml; the “ADCC EC50 … Experiment 1” value is 0.7 ng of Active Ab/ml and 0.4 ng of Active Ab/ml; the “ADCC EC50 … Experiment 2” value was 1.5 ng of Active Ab/ml and 0.9 ng of Active Ab/ml.

B3: RhD4 (IgG3 variant of RhD1: RhD1V3C heavy chain and RhD1 light chain) (antibody)
heavy: QVQLVQSGAEVKKPGSSVKVSCKASGGIFRTYAISWVRQAPGQGLEWMGGIIPMFGTVNYAQKFQGRVTISADKSTSTAYMELSRLRSEDTAVYYCARPPSGGCGGDCSRRGYYYAMDVWGQGTTITVSSASTKGPSVFPLAPCSRSTSGGTAALGCLVKDYFPEPVTVSWNSGALTSGVHTFPAVLQSSGLYSLSSVVTVPSSSLGTQTYTCNVNHKPSNTKVDKRVELKTPLGDTTHTCPRCPEPKSCDTPPPCPRCPEPKSCDTPPPCPRCPEPKSCDTPPPCPRCPAPELLGGPSVFLFPPKPKDTLMISRTPEVTCVVVDVSHEDPEVQFKWYVDGVEVHNAKTKPREEQFNSTFRVVSVLTVLHQDWLNGKEYKCKVSNKALPAPIEKTISKTKGQPREPQVYTLPPSREEMTKNQVSLTCLVKGFYPSDIAVEWESSGQPENNYNTTPPMLDSDGSFFLYSKLTVDKSRWQQGNIFSCSVMHEALHNRFTQKSLSLSPGK
light: B2 light
notes: IgG3, lambda chimera; The limits were converted from the nucleotide limits: variable region nt 58-448, constant region from nt 449; The NheI site was made by silent mutations only
Regarding B3, in assay [1], the “ADCC EC50 (ng of Active Ab/ml), Average” value is 0.3 ng of Active Ab/ml; the “ADCC EC50 … Experiment 1” value is 0.1 ng of Active Ab/ml; the “ADCC EC50 … Experiment 2” value is 0.5 ng of Active Ab/ml. Further, the “Agglutination Titer (µg of Active Ab per mg of Protein)” value in assay [2] is 303 µg of Active Ab per mg of Protein.
